Values quoted from earlier work, collected in PMC3823252.

Target: KpOmpA (Klebsiella pneumoniae) (UniProt P24017)
Sequence (P24017 2-344): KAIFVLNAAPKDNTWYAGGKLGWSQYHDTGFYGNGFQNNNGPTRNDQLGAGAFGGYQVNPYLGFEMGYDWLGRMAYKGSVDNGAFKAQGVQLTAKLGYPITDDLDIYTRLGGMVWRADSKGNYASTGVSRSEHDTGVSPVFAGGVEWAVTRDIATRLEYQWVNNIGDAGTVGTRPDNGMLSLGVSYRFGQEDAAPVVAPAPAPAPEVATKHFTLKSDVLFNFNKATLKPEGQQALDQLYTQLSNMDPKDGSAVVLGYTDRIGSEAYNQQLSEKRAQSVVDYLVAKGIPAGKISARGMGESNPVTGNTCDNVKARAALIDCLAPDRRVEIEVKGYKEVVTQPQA

Sequence of PTX3 (P26022 18-381): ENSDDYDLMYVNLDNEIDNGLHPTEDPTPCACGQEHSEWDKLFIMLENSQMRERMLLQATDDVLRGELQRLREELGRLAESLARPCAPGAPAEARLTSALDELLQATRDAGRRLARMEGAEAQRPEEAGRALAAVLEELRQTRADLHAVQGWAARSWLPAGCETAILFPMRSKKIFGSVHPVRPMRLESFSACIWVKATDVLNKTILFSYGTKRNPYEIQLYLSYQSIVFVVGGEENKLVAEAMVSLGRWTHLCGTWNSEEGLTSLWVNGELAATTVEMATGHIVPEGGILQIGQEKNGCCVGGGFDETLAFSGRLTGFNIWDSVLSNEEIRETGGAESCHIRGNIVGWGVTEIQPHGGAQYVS

Question: With PTX3 (from UniProt P26022) as the substance, how does the Kd read?
Answer: 50 nM
